Patent publication US20250196025A1

Columns and labels:
[1] = biological target: IgG (Gammanorm); assay: SPR (Biacore), variant amine-coupled to CM5 chip, Gammanorm as analyte, 1:1 kinetic fit
[2] = biological target: IgG (Gammanorm); assay: SPR (Biacore), variant amine-coupled to CM5 chip, Gammanorm as analyte, steady state affinity fit
[3] = biological target: Adalimumab; assay: column dynamic binding capacity at 10% breakthrough, 4 min residence time; ligand density about 14.3 mg/ml
[4] = biological target: Adalimumab; assay: column dynamic binding capacity at 10% breakthrough, 6 min residence time; ligand density about 14.3 mg/ml
[5] = biological target: Fab-fragment produced from Trastuzumab by papain cleavage; assay: column dynamic binding capacity at 10% breakthrough, Fab-fragment, 1 min residence time, duplicate columns
[6] = biological target: Fab-fragment produced from Trastuzumab by papain cleavage; assay: column dynamic binding capacity at 10% breakthrough, Fab-fragment, 6 min residence time; ligand density 10.6
[7] = biological target: Fab-fragment produced from Trastuzumab by papain cleavage; assay: column dynamic binding capacity at 10% breakthrough, Fab-fragment, 6 min residence time; ligand density 11.0
[8] = biological target: dAb (VL single domain antibody); assay: column dynamic binding capacity at 10% breakthrough, dAb, 4 min residence time, duplicate columns
[9] = biological target: dAb (VL single domain antibody); assay: column dynamic binding capacity at 10% breakthrough, dAb, 6 min residence time, duplicate columns
[10] = biological target: dAb (VL single domain antibody); assay: column dynamic binding capacity at 10% breakthrough, dAb, 10 min residence time, duplicate columns
[11] = biological target: dAb (VL single domain antibody); assay: column dynamic binding capacity at 10% breakthrough, dAb, 2.4 min residence time, duplicate columns
[12] = biological target: Fab-fragment produced from Trastuzumab by papain cleavage; assay: column dynamic binding capacity at 10% breakthrough, Fab-fragment, 6 min residence time, duplicate columns
[13] = biological target: Fab-fragment produced from Trastuzumab by papain cleavage; assay: column dynamic binding capacity at 10% breakthrough, Fab-fragment, 10 min residence time, duplicate columns
[14] = biological target: Herceptin (Trastuzumab); assay: column dynamic binding capacity at 10% breakthrough, Trastuzumab, 4 min residence time, at CIP cycle 35 (0.1 M NaOH)

Chain of Pentamer of SEQ ID NO:3 (ligand B2-1, pAM237) immobilized on cross-linked agarose beads (prototype separation matrix) (chain): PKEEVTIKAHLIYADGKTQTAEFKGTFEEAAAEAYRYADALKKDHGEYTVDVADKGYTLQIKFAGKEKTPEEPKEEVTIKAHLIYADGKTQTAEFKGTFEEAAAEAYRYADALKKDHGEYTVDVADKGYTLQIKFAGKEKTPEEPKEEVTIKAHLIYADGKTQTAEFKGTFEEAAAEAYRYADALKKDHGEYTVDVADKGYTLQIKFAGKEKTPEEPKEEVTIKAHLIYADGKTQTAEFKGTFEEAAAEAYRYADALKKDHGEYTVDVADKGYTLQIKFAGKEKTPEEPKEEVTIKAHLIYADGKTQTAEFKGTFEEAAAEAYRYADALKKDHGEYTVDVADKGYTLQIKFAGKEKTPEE

Substance	Kd [1] [nM]	Kd [2] [nM]	also measured
Protein L variant pAM256 (domain C1b-2; H10, H45, Y60)	59	134	
Protein L variant pAM250 (domain B1b-2; H10, H45, Y60)	40	99	
Protein L variant pAM236 (domain B1b-1; H10, H45, Q60)	61	130	
Pentamer of SEQ ID NO:3 (ligand B2-1, pAM237) immobilized on cross-linked agarose beads (prototype separation matrix)			DBC Qb10% [3]: 57 mg/mL; DBC Qb10% [4]: 67 mg/mL; DBC Qb10% [5]: 48.1; DBC Qb10% 6 min RT [6]: 56.8; DBC Qb10% 6 min RT [7]: 55.5
TOYOPEARL® AF-r Protein L-650F (Tosoh)			DBC Qb10% [8]: 25.2; DBC Qb10% [9]: 26.3; DBC Qb10% [10]: 26; DBC Qb10% [11]: 23.7; DBC Qb10% [5]: 43.7; DBC Qb10% [12]: 57.7; DBC Qb10% [13]: 58.1
Capto™ L (Cytiva™), commercial Protein L matrix			DBC Qb10% [8]: 16.2; DBC Qb10% [9]: 16.4; DBC Qb10% [10]: 16.7; DBC Qb10% [11]: 15.8; DBC Qb10% [5]: 16.9; DBC Qb10% [14]: 21
Protein L construct pAM114 (wt B3 domain; N10, N45, N60)	11	46	
Protein L variant pAM255 (domain C1-2; H10, H45, Y60)	146	324	

Continued, in another order:

Kd [1] [nM]	Kd [2] [nM]	Substance	also measured
49	116	Protein L variant pAM242 (domain C1b-1; H10, H45, Q60)	
7	41	Protein L variant pAM254 (domain B5b-2; H10, H45, Y60)	
15	79	Protein L variant pAM240 (domain B5b-1; H10, H45, Q60)	
87	187	Protein L variant pAM241 (domain C1-1; H10, H45, Q60)	
